Measurements published in the supplement of paper PMC10724198.

system: Saccharomyces cerevisiae; assay: protein stability index of tFT-peptide fusion in deletion strain of DAS1 (PSI (0-1 scale)); higher = more stable (slower turnover)
Description: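 MPS profiling in S. cerevisiae of two library types built from selected 12-aa C-degron peptides (IN1, IN2, LN1, LN3, VN2, R1-R5, W1-W3, Atg1 and Rpa12 C-termini): saturation mutagenesis libraries and C-terminal +1 capping libraries (13 aa). Each peptide is fused to the C-terminus of a sfGFP-mCherry timer, after a GGGS linker. Cells are FACS-sorted into 8 mCherry/sfGFP bins and sequenced. PSI runs from 0 (unstable) to 1 (stable), measured once in wild type and in the das1Δ or doa10Δ background.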
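Also: PSI is a weighted mean of each variant's read distribution over the sorted stability bins, computed only for variants having over 10 reads in total.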

Sequence	protein stability index
ARWRVVLWRGAS	0.621
CHSCGYKFRTNN	0.715
CNSCGYKFRTNN	0.702
CQSCGYKFRTNN	0.7
CRWRVGLWRGAS	0.697
CSMRWTFRYWVN	0.573
CTLCGYKFRTNN	0.72
CTSCGEKFRTNN	0.666
CTSCGIKFRTNN	0.688
CTSCGPKFRTNN	0.674
CTSCGYKDRTNN	0.702
CTSCGYKFGTNN	0.693
CTSCGYKFRPNN	0.714
CTSCGYKFRTLN	0.696
CTSCGYKFRTNL	0.703
CTSCGYKFRTNNC	0.673
CTSCGYKFRTNNT	0.689
CTSCGYKFVTNN	0.692
CTSCGYKTRTNN	0.679
CTSCGYKVRTNN	0.693
CTSCGYLFRTNN	0.698
CTSCGYYFRTNN	0.697
CTSCLYKFRTNN	0.675
CTSGGYKFRTNN	0.673

Sequence	protein stability index
CTSNGYKFRTNN	0.674
CTSWGYKFRTNN	0.744
CTWCGYKFRTNN	0.685
DKILRQKMNHQN	0.672
ERGAVGGWRLVG	0.675
ESMRWTFRYWVN	0.56
FSGRWTFRYWVN	0.626
FSMRGTFRYWVN	0.608
FSMRHTFRYWVN	0.588
FSMRQTFRYWVN	0.558
FSMRWKFRYWVN	0.577
FSMRWTARYWVN	0.513
FSMRWTFRKWVN	0.634
FSMRWTFRYCVN	0.492
FSMRWTFRYMVN	0.577
FSMRWTFRYWLN	0.486
FSMRWTFRYWMN	0.485
FSMRWTFRYWSN	0.538
FSMRWTFRYWVE	0.473
FSMRWTFRYWVG	0.476
FSMRWTFRYWVNC	0.508
FSMRWTFRYWVNI	0.527
FSMRWTFRYWVT	0.469
FSMRWTFRYWYN	0.48

Sequence	protein stability index
FSMRWTFYYWVN	0.418
FSMRWTWRYWVN	0.625
FSPRWTFRYWVN	0.59
FSSRWTFRYWVN	0.604
FVVYLSCVACIN	0.0242
FWMRWTFRYWVN	0.379
HSMRWTFRYWVN	0.586
HVVYLSCVACIN	0.0397
IKILRQKMNHQN	0.659
KKEKKGQKQKIN	0.578
KKFKKGQKQKIN	0.575
KKHKCGQKQKIN	0.582
KKHKKAQKQKIN	0.601
KKHKKCQKQKIN	0.548
KKHKKGQKAKIN	0.611
KKHKKGQKGKIN	0.584
KKHKKGQKKKIN	0.576
KKHKKGQKMKIN	0.583
KKHKKGQKQIIN	0.584
KKHKKGQKQKIH	0.662
KKHKKGQKQKINN	0.659
KKHKKGQKQKINP	0.663
KKHKKGQKQKINQ	0.664
KKHKKGQKQKINR	0.657

Sequence	protein stability index
KKHKKGQKQKIP	0.638
KKHKKGQKQKQN	0.583
KKHKKGQKTKIN	0.619
KKHKKGQYQKIN	0.569
KKHMKGQKQKIN	0.551
KKHRKGQKQKIN	0.678
KKHTKGQKQKIN	0.622
KSLAASFWRVVG	0.673
LDVYLSCVACIN	0.231
LKALRQKMNHQN	0.672
LKFLRQKMNHQN	0.697
LKHKKGQKQKIN	0.576
LKICRQKMNHQN	0.722
LKIFRQKMNHQN	0.669
LKIHRQKMNHQN	0.673
LKIIRQKMNHQN	0.718
LKILFQKMNHQN	0.688
LKILRAKMNHQN	0.665
LKILRQCMNHQN	0.686
LKILRQKCNHQN	0.663
LKILRQKINHQN	0.668
LKILRQKMKHQN	0.687
LKILRQKMLHQN	0.643
LKILRQKMNAQN	0.671

Sequence	protein stability index
LKILRQKMNHQN	0.674
LKILRQKMNHQNK	0.664
LKILRQKMNHQNY	0.705
LKILRQKMNHQQ	0.691
LKILRQKMNKQN	0.656
LKILRQKMNRQN	0.68
LKILRQKMNVQN	0.661
LKILRQSMNHQN	0.661
LKILRRKMNHQN	0.648
LNVYLSCVACIN	0.188
LQILRQKMNHQN	0.701
LTVYLSCVACIN	0.0375
LVVYHSCVACIN	0.313
LVVYLACVACIN	0.041
LVVYLCCVACIN	0.0405
LVVYLDCVACIN	0.119
LVVYLSCQACIN	0.0148
LVVYLSCVAAIN	0.0388
LVVYLSCVACEN	0.132
LVVYLSCVACIE	0.0184
LVVYLSCVACINF	0.0394
